In patent US20170137895, “METHODS OF IDENTIFYING ENZYMES AND MICROORGANISMS” (ZYMONOSTICS APS, published 2017):

T1: Mycobacterium smegmatis topoisomerase I (msTopoI) (Mycobacterium smegmatis, UniProt A0R5D9 A0R5D9:2-936)
T1 sequence: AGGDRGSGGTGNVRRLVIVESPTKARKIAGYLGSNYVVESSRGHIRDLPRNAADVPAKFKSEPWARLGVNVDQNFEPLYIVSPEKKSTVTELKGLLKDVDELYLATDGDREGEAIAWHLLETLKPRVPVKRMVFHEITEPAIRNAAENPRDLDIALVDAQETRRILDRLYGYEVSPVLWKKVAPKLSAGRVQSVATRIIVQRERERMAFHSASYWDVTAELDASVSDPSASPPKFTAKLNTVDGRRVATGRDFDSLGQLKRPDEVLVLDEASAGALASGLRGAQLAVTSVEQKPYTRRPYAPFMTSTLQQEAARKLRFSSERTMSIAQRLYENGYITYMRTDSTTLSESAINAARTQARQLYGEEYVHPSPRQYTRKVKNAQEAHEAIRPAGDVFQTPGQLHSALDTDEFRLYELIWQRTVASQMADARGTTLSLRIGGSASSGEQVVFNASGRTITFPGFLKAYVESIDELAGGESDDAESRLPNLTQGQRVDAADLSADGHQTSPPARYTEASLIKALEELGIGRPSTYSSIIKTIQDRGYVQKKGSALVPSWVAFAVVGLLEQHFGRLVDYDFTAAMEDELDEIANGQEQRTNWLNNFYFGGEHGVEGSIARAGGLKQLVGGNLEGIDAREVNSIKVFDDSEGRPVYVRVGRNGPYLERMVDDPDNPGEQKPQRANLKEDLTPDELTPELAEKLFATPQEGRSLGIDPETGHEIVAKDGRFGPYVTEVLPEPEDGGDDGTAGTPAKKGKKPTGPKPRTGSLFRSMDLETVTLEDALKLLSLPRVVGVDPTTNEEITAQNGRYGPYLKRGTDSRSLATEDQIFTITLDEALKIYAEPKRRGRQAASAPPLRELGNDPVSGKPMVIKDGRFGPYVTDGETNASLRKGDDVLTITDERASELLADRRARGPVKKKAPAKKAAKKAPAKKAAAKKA

B1: HIV LTR substrate (dsDNA)
DNA 1: TTTAGTCAGTGTGGAAAATCTCTAGCAGT
DNA 2: ACTGCTAGAGATTTTCCACACTGACTAAA
modifications: 5' amino-C6-T on both strands, SEQ:6 strand immobilised

How the values were obtained:
HIV integrase = HIV integrase (Human immunodeficiency virus, UniProt P04585 P04585:1148-1435); test: integration of LTR into dsDNA SEQ:12/SEQ:13; MES pH 6.2, 200 mM KCl, 10 mM MnCl2, 10 mM DTT, 37 C; settings: tags: His-tag (pTrcHis), E. coli BL21
[1] = biological target: T1, Mycobacterium smegmatis topoisomerase I …; test: ligation of SEQ:16 oligo to substrate; binding in 1 mM EDTA, 300 mM NaCl, 37 C, then 5 mM MgCl2; no numeric result given
Procedure: Prepare a solution containing msTopol as well as 10 mM Tris-HCl (pH 7.5), 1 mM EDTA, and 300 mM NaCl. Add 5 μL to each printed area (see previous section). Incubate for 1 h at 37° C. in humidity chamber. Wash 3×5 minutes in wash buffer 4. To each printed are, add 5 μL of ligation mixture: 2 μM oligonucleotide ([Btn]CAGTGAGCGTCTGGCTGAAGCTTCCGCT; SEQ ID No: 16); 300 mM NaCl; 1 mM Tris-HCl (pH 7.5); 5 mM MgCl₂. Incubate at 37° C. for 1 h in humidity chamber. Wash for 1 min in wash buffer 2, 1 min in wash buffer 3, and 1 min in 96% ethanol. Let the slide air-dry.

| Binder | binding result (HIV integrase) | binding result [1] |
| --- | --- | --- |
| B1 | binds | – |
| CAGTGAGCGAGCTTCCGCTTGACATCCCAATAGTTTCTCTTC (ssDNA, 3' amino-C6, immobilised on CodeLink slide) [msTopoI substrate] | – | binds |
